According to PMC6016246, “Cytokinin Signaling in Mycobacterium tuberculosis” (mBio, 2018):

Legend:
Rv0078 R48M = target: T1, Rv0078 R48M (Mycobacterium tuberculosis, UniProt O53623 1-201, R48M); experiment: EMSA; […], room temperature 30 min; […], buffer not stated; details: protein: recombinant; chain copies: 2; label: 5'-IRDye700 on S21
T1 sequence: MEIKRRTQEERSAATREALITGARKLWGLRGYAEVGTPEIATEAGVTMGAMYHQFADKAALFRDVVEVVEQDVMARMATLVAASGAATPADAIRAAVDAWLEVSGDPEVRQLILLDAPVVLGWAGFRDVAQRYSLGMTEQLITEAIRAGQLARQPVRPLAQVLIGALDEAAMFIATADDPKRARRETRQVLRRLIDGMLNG

Rv0078 = target: T2, Rv0078 (Mycobacterium tuberculosis, UniProt O53623 1-201); experiment: as above; details: protein: recombinant; tags: C-terminal His6; chain copies: 4; label: IRDye700
T2 sequence: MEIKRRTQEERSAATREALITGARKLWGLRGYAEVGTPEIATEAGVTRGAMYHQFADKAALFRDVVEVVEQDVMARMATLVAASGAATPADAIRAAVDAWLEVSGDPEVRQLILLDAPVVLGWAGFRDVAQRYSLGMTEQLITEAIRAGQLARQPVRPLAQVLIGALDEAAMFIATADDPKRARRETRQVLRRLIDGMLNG

B1: +19/-14 (WT) (dsDNA)
DNA 1: GTACATTTACAAGCAGACTGCCGGTAACTTACCCCAGACCAGGGCAC
DNA 2: GTGCCCTGGTCTGG
DNA 3: GGTAAGTTACCGGCAGTCTGCTTGTAAATGTAC
Rv0078 R48M
  binding result: no binding

B2: probe S1 (central dimer G-to-A) (dsDNA)
DNA 1: GTACATTTACAAGTAGACTACCGGTAACTTACC
DNA 2: GGTAAGTTACCGGTAGTCTACTTGTAAATGTAC
Rv0078
  binding result: no binding
